± gives the standard deviation of the averaged measurements.
System: Saccharomyces cerevisiae
Test: protein stability index of tFT-peptide fusion (C-terminal peptide) (PSI (0-1 scale)); higher = more stable (slower turnover)
Conditions: genetic background: das1 deletion; temperature: 30 C
Experimental: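 MPS profiling in S. cerevisiae of the yeast C-terminome library: the last 12 aa of each annotated ORF are fused to the C-terminus of a sfGFP-mCherry timer, after a GGGS linker. Cells are FACS-sorted into 8 mCherry/sfGFP bins and deep-sequenced. PSI runs from 0 (unstable) to 1 (stable); wild type and das1Δ backgrounds, two technical replicates each.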

Sequence	protein stability index
LPLKLTRKVHDR [RIF2 C-terminal 12 aa]	0.705 ± 0.05
LPSINTIFKDML [DOT6 C-terminal 12 aa]	0.702 ± 0.03
LQEPDRDNDDSG [NTC20 C-terminal 12 aa]	0.701 ± 0.013
LQLFVNLGCPLS [YDR455C C-terminal 12 aa]	0.727 ± 0.028
LQNNDVTIGFAK [MUD1 C-terminal 12 aa]	0.715 ± 0.0077
LQPDVPPSSGRS [KEX2 C-terminal 12 aa]	0.695 ± 0.033
LQPWEGRLYLLK [IMA5 C-terminal 12 aa]	0.698 ± 0.048
LRFEEMNSDLVQ [ROG1 C-terminal 12 aa]	0.705 ± 0.0096
LRRSFAIYTLGH [MCM2 C-terminal 12 aa]	0.647 ± 0.027
LRVEWSKPKVKE [TIF35 C-terminal 12 aa]	0.699 ± 0.015
LSDDEEEEEEEE [RIX1 C-terminal 12 aa]	0.648 ± 0.048
LSEEDLLDDESS [YPF1 C-terminal 12 aa]	0.669 ± 0.042
LSGAPQVTKKQN [POM33 C-terminal 12 aa]	0.691 ± 0.013
LSHAQKEIYEFK [UTP25 C-terminal 12 aa]	0.687 ± 0.011
LSQFSNVRYLLQ [VPS70 C-terminal 12 aa]	0.7367 ± 0.0022
LSQWVSQMPFPM [LRO1 C-terminal 12 aa]	0.79828 ± 0.00044
LTEMSAKISFED [AAD10 C-terminal 12 aa]	0.717 ± 0.019
LTHQSLLATARK [KIP3 C-terminal 12 aa]	0.6931 ± 0.0014
LTLIPILFGKLQ [YNL203C C-terminal 12 aa]	0.6875 ± 0.0045
LTSIWKTILFFK [YEL076C C-terminal 12 aa]	0.41 ± 0.014
LTSYINVHLVYV [YNL285W C-terminal 12 aa]	0.301 ± 0.016

Sequence	protein stability index
LVAEATKKKRHT [DJP1 C-terminal 12 aa]	0.7115 ± 0.0067
LVKCASATIMLN [MIN3 C-terminal 12 aa]	0.704 ± 0.021
LVKPKNWKKFRE [KRE2 C-terminal 12 aa]	0.686 ± 0.017
LVSYFIKVQMKL [ECM3 C-terminal 12 aa]	0.487 ± 0.0087
LVYATELIGSGS [ICE2 C-terminal 12 aa]	0.7058 ± 0.0022
LYEHGIKKFDDL [JIP5 C-terminal 12 aa]	0.674 ± 0.029
LYTFIVKKVKRD [GID12 C-terminal 12 aa]	0.671 ± 0.045
MEALKEAREILG [MSH1 C-terminal 12 aa]	0.7025 ± 0.0022
MFLSIQPQEARP [KAP120 C-terminal 12 aa]	0.72 ± 0.0086
MFNASSDIFQRN [YML083C C-terminal 12 aa]	0.703 ± 0.016
MKEKLKHSRKYM [SHY1 C-terminal 12 aa]	0.7121 ± 0.0039
MKGYGFEVPSAN [COX17 C-terminal 12 aa]	0.6984 ± 0.0041
MKLFEENKKEEE [PET111 C-terminal 12 aa]	0.722 ± 0.014
MLAKIHKLNNKA [RFC4 C-terminal 12 aa]	0.7026 ± 0.0053
MLKFLAVVFFLL [YGL218W C-terminal 12 aa]	0.392 ± 0.018
MLNQQQQQQQQS [NRD1 C-terminal 12 aa]	0.702 ± 0.016
MNNLFNPHSHDS [GTA1 C-terminal 12 aa]	0.7104 ± 0.0014
MQHRGWSSLMSL [YJR146W C-terminal 12 aa]	0.7031 ± 0.0016
MSSTKKVRFVML [RMD5 C-terminal 12 aa]	0.696 ± 0.035
MTSLDICALGIK [RVS161 C-terminal 12 aa]	0.689 ± 0.012

From the supplement of paper PMC10724198
